Data: patent publication US20260167721A1 (ABLEXIS, published 2026)

What was measured:
[1] = target: T1, CD3 on Jurkat wild-type cells (UniProt P07766 23-207; P04234 22-171; P09693 23-182); test: flow cytometry on Jurkat WT cells, antibody at 1 ug/ml
T1 construct: whole, on cells; also called Jurkat WT

CD33 on KILR-HL60 cells [2] = target: T2, CD33 on KILR-HL60 cells (UniProt P20138 18-364, limits assumed); test: flow cytometry on KILR-HL60 (CD33 expressing) cells, antibody at 10 ug/ml
T2 construct: whole, on cells; Target of the gemtuzumab arm; also called CD33 expressing cells
T2 sequence (P20138 18-364 limits assumed): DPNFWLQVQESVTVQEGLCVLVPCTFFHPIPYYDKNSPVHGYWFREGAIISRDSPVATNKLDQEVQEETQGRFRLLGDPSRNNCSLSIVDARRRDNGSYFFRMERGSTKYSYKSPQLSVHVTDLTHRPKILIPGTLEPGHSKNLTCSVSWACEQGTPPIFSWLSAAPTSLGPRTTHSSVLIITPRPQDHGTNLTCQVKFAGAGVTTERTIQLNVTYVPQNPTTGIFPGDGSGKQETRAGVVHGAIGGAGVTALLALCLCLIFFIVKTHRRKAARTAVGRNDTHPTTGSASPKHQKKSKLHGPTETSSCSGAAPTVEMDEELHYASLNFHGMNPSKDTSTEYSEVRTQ

[3] = target: T1, CD3 on Jurkat wild-type cells; test: flow cytometry on Jurkat WT cells, antibody at 10 ug/ml
CD33 on KILR-HL60 cells [4] = target: T2, CD33 on KILR-HL60 cells; test: flow cytometry on KILR-HL60 (CD33 expressing) cells, antibody at 1 ug/ml
[5] = target: T3, recombinant human CD3 epsilon/gamma heterodimer (human, UniProt P07766 23-126; P09693 23-116); test: Octet BLI, mAb on FAB2G sensor, hCD3 E/G 200-50 nM; R^2 0.84
T3 construct: Recombinant protein in solution (200-50 nM) in the Octet assay; also called hCD3 E/G
T3 sequence (P07766 23-126, chain 1 of 2): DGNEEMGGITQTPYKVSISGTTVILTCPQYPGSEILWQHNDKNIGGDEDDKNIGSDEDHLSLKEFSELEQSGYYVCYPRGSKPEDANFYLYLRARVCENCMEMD
T3 sequence (P09693 23-116, chain 2 of 2): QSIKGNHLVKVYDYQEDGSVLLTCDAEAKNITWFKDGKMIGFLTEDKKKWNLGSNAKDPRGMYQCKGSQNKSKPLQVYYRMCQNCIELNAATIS
Experimental: (§1) Samples were evaluated by flow cytometry analysis against Jurkat and human Pan-T cells (FIG. 1B) as well as by Octet against recombinant human CD3 proteins to evaluate apparent affinities and binding off-rates (Table 6, infra).

[6] = target: T4, recombinant human CD3 epsilon/delta heterodimer (human, UniProt P07766 23-126; P04234 22-105); test: Octet BLI, mAb on FAB2G sensor, hCD3 E/D 200-50 nM; R^2 0.99
T4 construct: Recombinant protein in solution (200-50 nM) in the Octet assay; also called hCD3 E/D; human CD3E/D
T4 sequence (P07766 23-126, stated change not applied, chain 1 of 2): as the sequence (P07766 23-126, chain 1 of 2) above
T4 sequence (P04234 22-105, stated change not applied, chain 2 of 2): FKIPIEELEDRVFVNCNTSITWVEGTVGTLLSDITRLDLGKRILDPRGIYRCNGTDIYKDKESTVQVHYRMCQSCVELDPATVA

[7] = target: T4, recombinant human CD3 epsilon/delta …; test: Octet BLI, mAb on FAB2G sensor, hCD3 E/D 200-50 nM; R^2 0.97
Experimental: as §1

[8] = target: T4, recombinant human CD3 epsilon/delta …; test: Octet BLI, mAb on FAB2G sensor, hCD3 E/D 200-50 nM; R^2 1.00

T1 sequence (P07766 23-207, chain 1 of 3): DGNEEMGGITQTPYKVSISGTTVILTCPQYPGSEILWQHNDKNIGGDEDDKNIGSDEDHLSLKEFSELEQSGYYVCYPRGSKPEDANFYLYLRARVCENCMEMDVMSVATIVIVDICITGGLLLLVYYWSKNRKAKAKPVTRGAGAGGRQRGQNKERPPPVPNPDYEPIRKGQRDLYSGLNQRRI
T1 sequence (P04234 22-171, chain 2 of 3): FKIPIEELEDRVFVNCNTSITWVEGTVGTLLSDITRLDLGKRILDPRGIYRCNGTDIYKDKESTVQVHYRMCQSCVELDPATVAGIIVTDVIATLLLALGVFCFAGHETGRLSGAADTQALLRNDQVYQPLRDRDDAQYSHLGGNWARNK
T1 sequence (P09693 23-182, chain 3 of 3): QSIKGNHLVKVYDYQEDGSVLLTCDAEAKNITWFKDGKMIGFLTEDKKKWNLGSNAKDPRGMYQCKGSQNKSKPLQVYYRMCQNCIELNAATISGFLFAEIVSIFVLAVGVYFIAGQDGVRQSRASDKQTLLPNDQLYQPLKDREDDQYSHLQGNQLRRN

| Binder | flow cytometry signal [1] | flow cytometry signal (CD33 on KILR-HL60 cells [2]) | flow cytometry signal [3] | flow cytometry signal (CD33 on KILR-HL60 cells [4]) | Kd [5] | Response [5] | koff [5] | kon [5] | also measured |
| --- | --- | --- | --- | --- | --- | --- | --- | --- | --- |
| ABL-CD3-9 (antibody, V domains shown, Chimeric hybridoma mAb: human V, CH1, upper hinge; mouse middle hinge, CH2, CH3) VH: EVQLVDSGGGLVKPGGSLRLSCAASGFTFSSYSMNWVRQAPGKGLEWVSSVNSRGSYIYYADSVKGRFTISRDNAKNSLYLQMNSLRADDTAVYYCARDRRELLLDYWGQGTLVTVSS VL: SYELTQPPSVSVSPGQTARITCSGDALPKKYAYWYQQKSGQAPVLVIYEDSKRPSGIPERFSGSSSGTMATLTISGAQVEDEADYYCYSTDSSGNHCWVFGGGTKLTVL | – | – | – | – | 110 nM | 0.1 | 0.114 s⁻¹ | 1.04e+06 M⁻¹ s⁻¹ | Kd [6]: 70.8 nM; Response [6]: 0.34; koff [6]: 0.0393 s⁻¹; kon [6]: 555000 M⁻¹ s⁻¹ |
| ABL-CD3-35 (antibody, V domains shown, Chimeric hybridoma mAb: human V, CH1, upper hinge; mouse middle hinge, CH2, CH3) VH: EVQLVESGGGLVKPGGSLRLSCAASGFTFSSYSMNWVRQAPGKGLEWVSSVNSRGSYIYYADSVKGRFTISRDNAKDSLYLQMNSLRADDTAVYYCARDRRELLLDYWGQGTLVTVSS VL: SYELTQPPSVSVSPGQTARITCSGDALPKKYAYWYQQKSGQAPVLVIYEDSKRPSGIPERFSGSSSGTMATLTISGAQVEDEADYYCYSTDSSGNHCWVFGGGTKLTVL | – | – | – | – | 14.2 nM | 0.12 | 0.0144 s⁻¹ | 1.02e+06 M⁻¹ s⁻¹ | Kd [7]: 54.7 nM; Response [7]: 0.36; koff [7]: 0.0271 s⁻¹; kon [7]: 495000 M⁻¹ s⁻¹ |
| Control Humanized anti-CD3 (high affinity) scFv-Fc knob/TM x gemtuzumab (bispecific antibody) scFv: EVQLVESGGGLVQPGGSLRLSCAASGFTFSTYAMNWVRQAPGKGLEWVGRIRSKYNNYATYYADSVKGRFTISRDDSKNTLYLQMNSLRAEDTAVYYCVRHGNFGDSYVSWFAYWGQGTLVTVSSGKPGSGKPGSGKPGSGKPGSQAVVTQEPSLTVSPGGTVTLTCGSSTGAVTTSNYANWVQQKPGKSPRGLIGGTNKRAPGVPARFSGSLLGGKAALTISGAQPEDEADYYCALWYSNHWVFGGGTKLTVLGGGGSDKTHTCPPCPAPEFEGGPSVFLFPPKPKDTLMISRTPEVTCVVVDVSHEDPEVKFNWYVDGVEVHNAKTKPREEQYNSTYRVVSVLTVLHQDWLNGKEYKCKVSNKALPASIEKTISKAKGQPREPQVYTLPPCREEMTKNQVSLWCLVKGFYPSDIAVEWESNGQPENNYKTTPPVLDSDGSFFLYSKLTVDKSRWQQGNVFSCSVMHEALHNHYTQKSLSLSPGK heavy: EVQLVQSGAEVKKPGSSVKVSCKASGYTITDSNIHWVRQAPGQSLEWIGYIYPYNGGTDYNQKFKNRATLTVDNPTNTAYMELSSLRSEDTAFYYCVNGNPWLAYWGQGTLVTVSSASTKGPSVFPLAPSSKSTSGGTAALGCLVKDYFPEPVTVSWNSGALTSGVHTFPAVLQSSGLYSLSSVVTVPSSSLGTQTYICNVNHKPSNTKVDKRVEPKSCDKTHTCPPCPAPEFEGGPSVFLFPPKPKDTLMISRTPEVTCVVVDVSHEDPEVKFNWYVDGVEVHNAKTKPREEQYNSTYRVVSVLTVLHQDWLNGKEYKCKVSNKALPASIEKTISKAKGQPREPQVCTLPPSREEMTKNQVSLSCAVKGFYPSDIAVEWESNGQPENNYKTTPPVLDSDGSFFLVSKLTVDKSRWQQGNVFSCSVMHEALHNRFTQKSLSLSPGK light: DIQLTQSPSTLSASVGDRVTITCRASESLDNYGIRFLTWFQQKPGKAPKLLMYAASNQGSGVPSRFSGSGSGTEFTLTISSLQPDDFATYYCQQTKEVPWSFGQGTKVEVKRTVAAPSVFIFPPSDEQLKSGTASVVCLLNNFYPREAKVQWKVDNALQSGNSQESVTEQDSKDSTYSLSSTLTLSKADYEKHKVYACEVTHQGLSSPVTKSFNRGEC | 37900 | 648000 | 38400 | 544000 | – | – | – | – | – |

Continued, in another order:

| flow cytometry signal [1] | flow cytometry signal (CD33 on KILR-HL60 cells [2]) | flow cytometry signal [3] | flow cytometry signal (CD33 on KILR-HL60 cells [4]) | Kd [5] | Response [5] | koff [5] | kon [5] | Binder | also measured |
| --- | --- | --- | --- | --- | --- | --- | --- | --- | --- |
| 2570 | 351000 | 2570 | 321000 | – | – | – | – | Gemtuzumab (antibody, V domains shown, the heavy chain entry carries the hole, H435R/Y436F and L234F/L235E/P331S changes, which the control may not have; also called anti-CD33 control antibody) VH: EVQLVQSGAEVKKPGSSVKVSCKASGYTITDSNIHWVRQAPGQSLEWIGYIYPYNGGTDYNQKFKNRATLTVDNPTNTAYMELSSLRSEDTAFYYCVNGNPWLAYWGQGTLVTVSS VL: DIQLTQSPSTLSASVGDRVTITCRASESLDNYGIRFLTWFQQKPGKAPKLLMYAASNQGSGVPSRFSGSGSGTEFTLTISSLQPDDFATYYCQQTKEVPWSFGQGTKVEVKR | – |
| 2620 | 623000 | 3230 | 535000 | – | – | – | – | Control Humanized anti-CD3 (low affinity) scFv-Fc knob/TM x gemtuzumab (bispecific antibody) scFv: EVQLVESGGGLVQPGGSLRLSCAASGFTFSTYAMNWVRQAPGKGLEWVGRIRSKYNNYATYYADSVKGRFTISRDDSKNTLYLQMNSLRAEDTAVYYCVRHGNFGDSYVSWFDYWGQGTLVTVSSGKPGSGKPGSGKPGSGKPGSQAVVTQEPSLTVSPGGTVTLTCGSSTGAVTTSNYANWVQQKPGKSPRGLIGGTNKRAPGVPARFSGSLLGGKAALTISGAQPEDEADYYCALWYSNHWVFGGGTKLTVLGGGGSDKTHTCPPCPAPEFEGGPSVFLFPPKPKDTLMISRTPEVTCVVVDVSHEDPEVKFNWYVDGVEVHNAKTKPREEQYNSTYRVVSVLTVLHQDWLNGKEYKCKVSNKALPASIEKTISKAKGQPREPQVYTLPPCREEMTKNQVSLWCLVKGFYPSDIAVEWESNGQPENNYKTTPPVLDSDGSFFLYSKLTVDKSRWQQGNVFSCSVMHEALHNHYTQKSLSLSPGK heavy: EVQLVQSGAEVKKPGSSVKVSCKASGYTITDSNIHWVRQAPGQSLEWIGYIYPYNGGTDYNQKFKNRATLTVDNPTNTAYMELSSLRSEDTAFYYCVNGNPWLAYWGQGTLVTVSSASTKGPSVFPLAPSSKSTSGGTAALGCLVKDYFPEPVTVSWNSGALTSGVHTFPAVLQSSGLYSLSSVVTVPSSSLGTQTYICNVNHKPSNTKVDKRVEPKSCDKTHTCPPCPAPEFEGGPSVFLFPPKPKDTLMISRTPEVTCVVVDVSHEDPEVKFNWYVDGVEVHNAKTKPREEQYNSTYRVVSVLTVLHQDWLNGKEYKCKVSNKALPASIEKTISKAKGQPREPQVCTLPPSREEMTKNQVSLSCAVKGFYPSDIAVEWESNGQPENNYKTTPPVLDSDGSFFLVSKLTVDKSRWQQGNVFSCSVMHEALHNRFTQKSLSLSPGK light: DIQLTQSPSTLSASVGDRVTITCRASESLDNYGIRFLTWFQQKPGKAPKLLMYAASNQGSGVPSRFSGSGSGTEFTLTISSLQPDDFATYYCQQTKEVPWSFGQGTKVEVKRTVAAPSVFIFPPSDEQLKSGTASVVCLLNNFYPREAKVQWKVDNALQSGNSQESVTEQDSKDSTYSLSSTLTLSKADYEKHKVYACEVTHQGLSSPVTKSFNRGEC | – |
| – | – | – | – | 15.8 nM | 0.03 | 0.00375 s⁻¹ | 237000 M⁻¹ s⁻¹ | ABL-CD3-45 (antibody, V domains shown, Chimeric hybridoma mAb: human V, CH1, upper hinge; mouse middle hinge, CH2, CH3) VH: EVQLVESGGGLVQPGGSLRLSCAASGFTFSSYWMSWVRQAPGKGLEWVANIKEDGSEKYYVDSVKGRFTISRDNAKNSLYLQMNSLRAEDTAVYYCARERRTGYLDYWGQGTLVTVSS VL: not shown | Kd [8]: 13.7 nM; Response [8]: 0.2; koff [8]: 0.000475 s⁻¹; kon [8]: 34600 M⁻¹ s⁻¹ |
